In general, Kd refers to the free concentration of one partner at which half of the binding sites on the other are occupied at equilibrium, for simple one-to-one binding.

1 molecule from PMC11555231, “A cyclic peptide toolkit reveals mechanistic principles of peptidylarginine deiminase IV regulation” (Nature Communications, 2024) can be followed below.

Assay [1] has as its target His-tagged recombinant human PADI4 (His-PADI4) (human, UniProt Q9UM07 1-663). As to the kind of experiment: cell-based or functional assay.
Assay [2] concerns the target T1, N-terminally biotinylated recombinant human PADI4 (bio-His-PADI4) (human, UniProt Q9UM07 1-663, biotin on the N-terminal Avi-Tag (BirA)).
T1 construct: human peptidylarginine deiminase IV (PADI4), residues 1-663; (vector p28BIOH-LIC, Addgene plasmid 62352); also called Bio-hPADI4 wt; PADI4_WT; source: E. coli BL21-DE3 co-expressing biotin ligase (BirA), purified (Ni-NTA, S200 SEC); not shown: Avi-Tag (biotinylated), N-terminal, kept; His6, N-terminal, kept
As to the kind of experiment: SPR; single cycle kinetics; biotinylated PADI4 (wild type or single-residue variant) captured on a Biotin CAPture chip, peptide or peptide analogue as analyte; 50 mM HEPES pH 7.5, 150 mM NaCl, 2 mM DTT, 0.05% Tween-20, 0.1% DMSO; 25 °C; CaCl2 concentration not told for these runs. The settings on record: both partners purified.

Sequence of His-tagged recombinant human PADI4 (His-PADI4) (Q9UM07 whole entry): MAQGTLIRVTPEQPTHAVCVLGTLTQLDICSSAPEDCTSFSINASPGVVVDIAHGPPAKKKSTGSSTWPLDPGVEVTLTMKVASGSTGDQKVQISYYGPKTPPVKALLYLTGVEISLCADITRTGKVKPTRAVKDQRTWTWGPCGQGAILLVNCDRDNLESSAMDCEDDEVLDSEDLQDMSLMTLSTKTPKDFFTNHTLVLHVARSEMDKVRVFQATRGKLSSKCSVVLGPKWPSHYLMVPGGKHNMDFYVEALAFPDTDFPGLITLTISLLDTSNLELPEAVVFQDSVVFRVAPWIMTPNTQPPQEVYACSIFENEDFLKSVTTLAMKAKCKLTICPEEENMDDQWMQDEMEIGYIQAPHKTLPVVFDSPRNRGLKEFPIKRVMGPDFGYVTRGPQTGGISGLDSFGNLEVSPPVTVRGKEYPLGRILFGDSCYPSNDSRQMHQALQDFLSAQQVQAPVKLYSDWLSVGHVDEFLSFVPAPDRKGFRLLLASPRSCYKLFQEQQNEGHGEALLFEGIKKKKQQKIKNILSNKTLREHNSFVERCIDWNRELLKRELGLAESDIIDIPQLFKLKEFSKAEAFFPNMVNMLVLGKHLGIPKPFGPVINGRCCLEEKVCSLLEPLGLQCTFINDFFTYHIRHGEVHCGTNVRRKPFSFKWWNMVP
T1 sequence (Q9UM07 whole entry, the tested form may be a part): as the sequence (Q9UM07 whole entry) above

B1: PADI4_3_R2Cit (peptide)
chain: YRDHHYRHPKYCG
modifications: citrulline at position 2; else as PADI4_3: D-tyrosine at position 1; thioether cyclisation between the N-terminus and the cysteine side chain; C-terminal amide
For the molecule B1, in assay [1], the “IC50 of inhibition of PADI4 activity (COLDER assay)” value came to 1100 nM. Also, in assay [2], the Kd amounted to 20 nM.
